Measured values taken from publication PMC314469, “Protein Interaction Networks by Proteome Peptide Scanning” (PLoS Biology, 2004).

T1: amphyphisin SH3 (AMPH_HUMAN), P49418
T1 chain: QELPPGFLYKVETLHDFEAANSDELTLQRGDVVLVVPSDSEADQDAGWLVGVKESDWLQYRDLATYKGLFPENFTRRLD


Target: T1, amphyphisin SH3 (AMPH_HUMAN), P49418
Experiment: SPOT array

Compared with SDREPTRPPRPILQ [Q9NQ53 86-99], SGDQLKRPFGAFRS [Q9Y6H5 853-866] is lower in normalised SPOT signal, Boehringer light units (BLU); mean over the file's lines of this peptide: 3890 for the first, 20.6 for the second.

First: SGGRIRRPVNVPID [P22001 113-126]
Second: SFSHLKRPQQGAGN [O43190 163-176]
The normalised SPOT signal, Boehringer light units (BLU); mean over the file's lines of this peptide of the first is higher: 29 for the first, 26.3 for the second.

First: SEDPLKRPVVYVKG [Q9ULT6 127-140]
Second: SGERLPRPDKGKMR [Q08043 87-100]
The normalised SPOT signal, Boehringer light units (BLU); mean over the file's lines of this peptide of the first is lower: 21.3 for the first, 91.2 for the second.

Compared with SEPHIKRPMNAFMV [Q9BXQ5 597-610], SFLTLTRPDRALVR [Q9H6A9 133-146] is higher in normalised SPOT signal, Boehringer light units (BLU); mean over the file's lines of this peptide: 32 for the first, 894 for the second.

SESRIRRPMNAFMV [Q9BT81 41-54] and SGGKIRRPANVPID [Q16322 147-160] are the same in normalised SPOT signal, Boehringer light units (BLU); mean over the file's lines of this peptide: 0 for the first, 0 for the second.

Going from SGPDLRRPPTPAPW [Q96IB8 451-464] to SAGPPSRPQRPFSA [O43257 105-118], the normalised SPOT signal, Boehringer light units (BLU); mean over the file's lines of this peptide rises from 39.4 to 4230.

First: SFTALRRPSLRREA [O76050 230-243]
Second: SGAPPTKPPTTPVG [P54259 267-281]
The normalised SPOT signal, Boehringer light units (BLU); mean over the file's lines of this peptide of the first is higher: 65.1 for the first, 41.3 for the second.

First: SGEQLPRPTRGRMR [Q9H254 103-116]
Second: SGGRLKRPVNVPFD [P22459 237-250]
The normalised SPOT signal, Boehringer light units (BLU); mean over the file's lines of this peptide of the first is higher: 873 for the first, 11.4 for the second.

First: SGLRLRRPRVSSTE [Q9H3P9 250-263]
Second: SGNSLKRPDTTESL [Q96SU4 326-339]
The normalised SPOT signal, Boehringer light units (BLU); mean over the file's lines of this peptide of the first is higher: 67.4 for the first, 24.4 for the second.

Going from SFLRLRRPWNWIAH [Q9H1Y5 130-143] to SEDDFYRPSREQPL [Q9Y4G2 445-458], the normalised SPOT signal, Boehringer light units (BLU); mean over the file's lines of this peptide rises from 120 to 142.

First: SFQSPTRPPLASPT [Q9UGJ0 207-221]
Second: SSTPPPRPPVLEEW [Q9UL65 458-472]
The normalised SPOT signal, Boehringer light units (BLU); mean over the file's lines of this peptide of the first is lower: 27.7 for the first, 29.8 for the second.

Going from SFLSLRRPWNWIAH [O15229 449-462] to SFAYPNRPDRPVLK [Q03519 474-487], the normalised SPOT signal, Boehringer light units (BLU); mean over the file's lines of this peptide rises from 57.7 to 1280.

Going from SGGRLRRPAHVPLD [Q9BYS4 74-87] to SEAAPRRPEATAAP [Q9H677 423-436], the normalised SPOT signal, Boehringer light units (BLU); mean over the file's lines of this peptide rises from 20.8 to 26.1.

Compared with SGLAPKRPGPAGEL [Q16849 127-140], AWQQLRRPEASETL [Q9BTX9 18-31] is higher in normalised SPOT signal, Boehringer light units (BLU); mean over the file's lines of this peptide: 22.9 for the first, 29.3 for the second.

Compared with SDSKPKRPQPSREI [Q96JP2 1105-1118], SGGIPKRPSSPVIS [Q96T17 281-294] is higher in normalised SPOT signal, Boehringer light units (BLU); mean over the file's lines of this peptide: 13.6 for the first, 46.1 for the second.

Compared with SGMAFPRPKRPAPA [Q9BQ84 245-258], SFSELVRPFKSNKS [O00529 218-231] is lower in normalised SPOT signal, Boehringer light units (BLU); mean over the file's lines of this peptide: 1310 for the first, 32.8 for the second.

Going from SGGRLRRPVNVSLD [P22460 181-194] to SDFSPSKPPSGPGK [Q9BZH6 185-199], the normalised SPOT signal, Boehringer light units (BLU); mean over the file's lines of this peptide falls from 56.9 to 52.

First: SGKGLRRPHSTVEE [Q9P2L5 16-29]
Second: AWVSPRRPDEEQRP [Q96MG2 305-318]
The normalised SPOT signal, Boehringer light units (BLU); mean over the file's lines of this peptide of the first is lower: 44.8 for the first, 57.9 for the second.

Going from SGGRPIKPPKKDLE [Q15059 280-294] to SGGRPLRPPHPVAK [O76081 141-155], the normalised SPOT signal, Boehringer light units (BLU); mean over the file's lines of this peptide rises from 48.5 to 718.

First: SEGSLTRPKKAIPP [O14810 90-103]
Second: SAGLPGKPPAIQAS [O95428 427-441]
The normalised SPOT signal, Boehringer light units (BLU); mean over the file's lines of this peptide of the first is lower: 0 for the first, 42.4 for the second.

Compared with SGGRLRRPVNVPLD [Q09470 98-111], SGAEIKRPGASVKV [O95978 26-39] is higher in normalised SPOT signal, Boehringer light units (BLU); mean over the file's lines of this peptide: 33.6 for the first, 34.4 for the second.

target: endophilin SH3 (SH3G2_HUMAN), Q99962; experiment: SPOT array

Going from SDREPTRPPRPILQ [Q9NQ53 86-99] to SGDQLKRPFGAFRS [Q9Y6H5 853-866], the normalised SPOT signal, Boehringer light units (BLU); mean over the file's lines of this peptide rises from 52.9 to 75.5.

First: SGGRIRRPVNVPID [P22001 113-126]
Second: SFSHLKRPQQGAGN [O43190 163-176]
The normalised SPOT signal, Boehringer light units (BLU); mean over the file's lines of this peptide of the first is higher: 104 for the first, 32.4 for the second.

Going from SEDPLKRPVVYVKG [Q9ULT6 127-140] to SGERLPRPDKGKMR [Q08043 87-100], the normalised SPOT signal, Boehringer light units (BLU); mean over the file's lines of this peptide falls from 58.8 to 47.7.

Going from SEPHIKRPMNAFMV [Q9BXQ5 597-610] to SFLTLTRPDRALVR [Q9H6A9 133-146], the normalised SPOT signal, Boehringer light units (BLU); mean over the file's lines of this peptide rises from 63.7 to 211.

Going from SESRIRRPMNAFMV [Q9BT81 41-54] to SGGKIRRPANVPID [Q16322 147-160], the normalised SPOT signal, Boehringer light units (BLU); mean over the file's lines of this peptide rises from 32.9 to 94.6.

First: SGPDLRRPPTPAPW [Q96IB8 451-464]
Second: SAGPPSRPQRPFSA [O43257 105-118]
The normalised SPOT signal, Boehringer light units (BLU); mean over the file's lines of this peptide of the first is lower: 39.1 for the first, 2420 for the second.

First: SFTALRRPSLRREA [O76050 230-243]
Second: SGAPPTKPPTTPVG [P54259 267-281]
The normalised SPOT signal, Boehringer light units (BLU); mean over the file's lines of this peptide of the first is lower: 27.6 for the first, 65.4 for the second.

Going from SGEQLPRPTRGRMR [Q9H254 103-116] to SGGRLKRPVNVPFD [P22459 237-250], the normalised SPOT signal, Boehringer light units (BLU); mean over the file's lines of this peptide falls from 210 to 37.8.

Going from SGLRLRRPRVSSTE [Q9H3P9 250-263] to SGNSLKRPDTTESL [Q96SU4 326-339], the normalised SPOT signal, Boehringer light units (BLU); mean over the file's lines of this peptide falls from 44.7 to 18.9.

Compared with SFLRLRRPWNWIAH [Q9H1Y5 130-143], SEDDFYRPSREQPL [Q9Y4G2 445-458] is lower in normalised SPOT signal, Boehringer light units (BLU); mean over the file's lines of this peptide: 351 for the first, 92.5 for the second.

Going from SFQSPTRPPLASPT [Q9UGJ0 207-221] to SSTPPPRPPVLEEW [Q9UL65 458-472], the normalised SPOT signal, Boehringer light units (BLU); mean over the file's lines of this peptide falls from 161 to 110.

First: SFLSLRRPWNWIAH [O15229 449-462]
Second: SFAYPNRPDRPVLK [Q03519 474-487]
The normalised SPOT signal, Boehringer light units (BLU); mean over the file's lines of this peptide of the first is higher: 500 for the first, 245 for the second.

First: SGGRLRRPAHVPLD [Q9BYS4 74-87]
Second: SEAAPRRPEATAAP [Q9H677 423-436]
The normalised SPOT signal, Boehringer light units (BLU); mean over the file's lines of this peptide of the first is higher: 24.7 for the first, 16.1 for the second.

First: SGLAPKRPGPAGEL [Q16849 127-140]
Second: AWQQLRRPEASETL [Q9BTX9 18-31]
The normalised SPOT signal, Boehringer light units (BLU); mean over the file's lines of this peptide of the first is lower: 11.3 for the first, 15.9 for the second.

First: SDSKPKRPQPSREI [Q96JP2 1105-1118]
Second: SGGIPKRPSSPVIS [Q96T17 281-294]
The normalised SPOT signal, Boehringer light units (BLU); mean over the file's lines of this peptide of the first is lower: 44.6 for the first, 1080 for the second.

Compared with SGMAFPRPKRPAPA [Q9BQ84 245-258], SFSELVRPFKSNKS [O00529 218-231] is lower in normalised SPOT signal, Boehringer light units (BLU); mean over the file's lines of this peptide: 629 for the first, 106 for the second.

First: SGGRLRRPVNVSLD [P22460 181-194]
Second: SDFSPSKPPSGPGK [Q9BZH6 185-199]
The normalised SPOT signal, Boehringer light units (BLU); mean over the file's lines of this peptide of the first is lower: 54.6 for the first, 63.8 for the second.

Compared with SGKGLRRPHSTVEE [Q9P2L5 16-29], AWVSPRRPDEEQRP [Q96MG2 305-318] is higher in normalised SPOT signal, Boehringer light units (BLU); mean over the file's lines of this peptide: 17.2 for the first, 398 for the second.

Compared with SGGRPIKPPKKDLE [Q15059 280-294], SGGRPLRPPHPVAK [O76081 141-155] is higher in normalised SPOT signal, Boehringer light units (BLU); mean over the file's lines of this peptide: 66 for the first, 6230 for the second.

Compared with SEGSLTRPKKAIPP [O14810 90-103], SAGLPGKPPAIQAS [O95428 427-441] is lower in normalised SPOT signal, Boehringer light units (BLU); mean over the file's lines of this peptide: 68.4 for the first, 50.3 for the second.

First: SGGRLRRPVNVPLD [Q09470 98-111]
Second: SGAEIKRPGASVKV [O95978 26-39]
The normalised SPOT signal, Boehringer light units (BLU); mean over the file's lines of this peptide of the first is higher: 44 for the first, 32.7 for the second.
